Literature values, collected in publication PMC3767571.

Target: Sortilin (Homo sapiens) (UniProt Q99523)
Sequence of UniProt Q99523 (Q99523 78-755): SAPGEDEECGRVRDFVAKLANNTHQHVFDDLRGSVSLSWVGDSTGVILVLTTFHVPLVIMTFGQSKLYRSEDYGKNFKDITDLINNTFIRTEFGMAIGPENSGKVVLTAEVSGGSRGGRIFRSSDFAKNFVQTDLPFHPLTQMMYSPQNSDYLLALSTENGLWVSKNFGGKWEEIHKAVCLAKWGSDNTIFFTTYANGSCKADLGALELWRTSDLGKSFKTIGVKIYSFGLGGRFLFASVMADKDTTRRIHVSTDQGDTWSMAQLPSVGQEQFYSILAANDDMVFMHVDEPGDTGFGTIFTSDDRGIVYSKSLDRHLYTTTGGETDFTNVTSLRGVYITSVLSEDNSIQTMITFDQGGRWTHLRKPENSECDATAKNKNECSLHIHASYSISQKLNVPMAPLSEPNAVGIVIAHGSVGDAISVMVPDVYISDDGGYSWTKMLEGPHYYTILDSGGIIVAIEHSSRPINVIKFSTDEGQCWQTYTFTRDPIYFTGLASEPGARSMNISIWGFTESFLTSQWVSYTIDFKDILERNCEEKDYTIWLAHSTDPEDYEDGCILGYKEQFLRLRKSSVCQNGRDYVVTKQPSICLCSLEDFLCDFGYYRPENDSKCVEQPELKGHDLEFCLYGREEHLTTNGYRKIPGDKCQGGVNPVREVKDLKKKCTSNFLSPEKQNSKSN

Question: With Progranulin (from UniProt P28799) as the substance, how does the Kd read?
Answer: The Kd was 11 nM.
